Laboratory results: patent US6613742B1, “Chemokine-derived synthetic peptides” (Thomas Jefferson University, priority 1999, dated 2003)
Where no end group is shown, it is not given here.

Target: T1, CXCR4 (Homo sapiens, UniProt P61073)
T1 construct: expressed in transfected cells; host or cells: QT6 cells, calcium phosphate transfection
Test: HIV-1 gp 120-CXCR4 mediated cell-cell fusion assay (luciferase reporter)
Assay type: cell-based
Conditions: for inhibiting cell-cell fusion, compared with N-terminal SDF-1 peptides SEQ ID NOS:8 and 10: effector 293 cells + QT6 target cells (CD4, CXCR4), peptide concentration 25 μM (FIG. 1)

T1 sequence (P61073 whole entry): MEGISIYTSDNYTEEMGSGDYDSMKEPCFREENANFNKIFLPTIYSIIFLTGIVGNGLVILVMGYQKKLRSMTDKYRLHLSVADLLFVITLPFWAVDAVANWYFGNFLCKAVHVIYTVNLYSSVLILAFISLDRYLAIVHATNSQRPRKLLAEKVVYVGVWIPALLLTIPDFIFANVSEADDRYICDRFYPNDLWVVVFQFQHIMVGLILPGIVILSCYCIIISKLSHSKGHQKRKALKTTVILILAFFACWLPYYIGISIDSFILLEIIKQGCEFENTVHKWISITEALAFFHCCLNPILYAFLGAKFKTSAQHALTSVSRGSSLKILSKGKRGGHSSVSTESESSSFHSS

| Sequence | inhibiting cell-cell fusion, compared with N-terminal SDF-1 peptides SEQ ID NOS:8 and 10 | activity in inhibiting cell-cell fusion (higher concentration of 50 μM) |
| --- | --- | --- |
| KPVSLSYRCPCRFFGGQGLKWIQEYLEKALN (cysteine pairing not given here) [SEQ ID NO:5, SDF-1 amino acids 1-14 and 55-67 linked by a (Gly)4 bridge] | substantially more effective | – |
| LKWIQEYLEKALN [SEQ ID NO:9, C-terminal SDF-1 peptide prepared for comparison, reference compound] | – | only negligibly active |
| LSYRCPCRFFGGGGLKWIQEYLEKALN (cysteine pairing not given here) [SEQ ID NO:4, SDF-1 amino acids 5-14 and 55-67 linked by (Gly)4] | substantially more effective | – |
| LSYRCPCRFFGGLKWIQEYLEKALN (cysteine pairing not given here) [SEQ ID NO:6, SDF-1 amino acids 5-14 and 55-67 linked by (Gly)2] | substantially more effective | – |
| LSYRCPCRFFKKKKLKWIQEYLEKALN (cysteine pairing not given here) [SEQ ID NO:7, SDF-1 amino acids 5-14 and 55-67 linked by (Lys)4] | substantially more effective | – |
